Stoichiometry N data for 1 substance are collected here from publication PMC11850232.

“And” between values parts separate entries of the source, which are not always exact repeats. Equal values may be shown once.

Usually stoichiometry N stands for a count of units in the complex or per binding partner.

In test [1] the target is Tilapia Lake virus nucleoprotein (TiLV-NP) (Tilapia Lake virus). Kind of test: cryo-EM structure.
The target is the same in test [2]. Kind of test: mass photometry; apo TiLV-NP at 25 nM; 50 mM HEPES pH 8, 150 mM NaCl, 2 mM TCEP.
Test [3] shares this target. Kind of test: mass photometry; RNA-bound TiLV-NP (40-mer vRNA loop) at 25 nM TiLV-NP; 50 mM HEPES pH 8, 150 mM NaCl, 2 mM TCEP.
The target is the same in test [4]. Kind of test: SEC-MALS; apo TiLV-NP injected at 5 and 3 mg/ml; Superdex 200 Increase 10/300 GL; 50 mM HEPES pH 8, 150 mM NaCl, 2 mM TCEP. For orientation: Size exclusion chromatography separates by hydrodynamic size, large species first.
The target is the same in test [5]. Kind of test: mass photometry; RNA-bound TiLV-NP (40-mer vRNA loop) at 25 nM TiLV-NP; 50 mM HEPES pH 8, 150 mM NaCl, 2 mM TCEP. The source holds these as a separate data set.

Turning to “Tilapia Lake virus nucleoprotein (TiLV-NP) (natural protein)”, the stoichiometry N was 4 and 5 and 6 in test [1]; 3 and 4 and 5 in test [2]; 5 and 6 in test [3]; 3 and 4 in test [4]; 3 and 4 in test [5].
